Test results as given in patent publication US20240383984A1 (Genentech, published 2024).
Where two headings read alike, the source gives them in different places. Each block holds one binder with its values, some of them ahead of it.

Assays:
[1] = target: T1, human FcRH3 (BIACORE analyte) (human, UniProt Q96P31 18-573, limits assumed); experiment: SPR (BIACORE), TDB captured as ligand, FcRH3 as analyte, 25 °C, 1:1 binding model
T1 construct: also called huFcRH3
T1 sequence (looked up): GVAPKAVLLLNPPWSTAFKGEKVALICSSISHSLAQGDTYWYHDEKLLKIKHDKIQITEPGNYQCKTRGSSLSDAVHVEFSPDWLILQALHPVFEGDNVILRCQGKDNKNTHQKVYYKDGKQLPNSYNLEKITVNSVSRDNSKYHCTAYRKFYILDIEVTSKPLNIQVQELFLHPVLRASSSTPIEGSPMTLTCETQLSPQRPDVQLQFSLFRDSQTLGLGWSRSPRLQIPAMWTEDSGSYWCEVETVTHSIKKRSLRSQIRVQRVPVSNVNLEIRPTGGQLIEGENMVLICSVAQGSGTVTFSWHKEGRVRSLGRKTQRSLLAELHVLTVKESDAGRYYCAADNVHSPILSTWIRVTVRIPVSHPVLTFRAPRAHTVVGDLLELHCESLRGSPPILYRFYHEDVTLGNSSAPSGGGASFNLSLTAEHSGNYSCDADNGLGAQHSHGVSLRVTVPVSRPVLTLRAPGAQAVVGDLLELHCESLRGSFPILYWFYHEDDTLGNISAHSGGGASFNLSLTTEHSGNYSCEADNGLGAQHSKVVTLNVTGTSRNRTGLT

[2] = target: T1, human FcRH3 (BIACORE analyte); experiment: as above; remark: listed apart in the source
[3] = target: T2, human FcRH5 protein fragment (soluble) (human, UniProt Q96RD9 16-851); experiment: SPR (BIACORE), hIgG capture format, 1:1 binding model, monovalent affinity; same numbers as FIG. 10B, Hu FcRH5 panel
T2 construct: whole entry named; also called soluble human FcRH5; Human FcRH5 (BIACORE analyte)
T2 sequence: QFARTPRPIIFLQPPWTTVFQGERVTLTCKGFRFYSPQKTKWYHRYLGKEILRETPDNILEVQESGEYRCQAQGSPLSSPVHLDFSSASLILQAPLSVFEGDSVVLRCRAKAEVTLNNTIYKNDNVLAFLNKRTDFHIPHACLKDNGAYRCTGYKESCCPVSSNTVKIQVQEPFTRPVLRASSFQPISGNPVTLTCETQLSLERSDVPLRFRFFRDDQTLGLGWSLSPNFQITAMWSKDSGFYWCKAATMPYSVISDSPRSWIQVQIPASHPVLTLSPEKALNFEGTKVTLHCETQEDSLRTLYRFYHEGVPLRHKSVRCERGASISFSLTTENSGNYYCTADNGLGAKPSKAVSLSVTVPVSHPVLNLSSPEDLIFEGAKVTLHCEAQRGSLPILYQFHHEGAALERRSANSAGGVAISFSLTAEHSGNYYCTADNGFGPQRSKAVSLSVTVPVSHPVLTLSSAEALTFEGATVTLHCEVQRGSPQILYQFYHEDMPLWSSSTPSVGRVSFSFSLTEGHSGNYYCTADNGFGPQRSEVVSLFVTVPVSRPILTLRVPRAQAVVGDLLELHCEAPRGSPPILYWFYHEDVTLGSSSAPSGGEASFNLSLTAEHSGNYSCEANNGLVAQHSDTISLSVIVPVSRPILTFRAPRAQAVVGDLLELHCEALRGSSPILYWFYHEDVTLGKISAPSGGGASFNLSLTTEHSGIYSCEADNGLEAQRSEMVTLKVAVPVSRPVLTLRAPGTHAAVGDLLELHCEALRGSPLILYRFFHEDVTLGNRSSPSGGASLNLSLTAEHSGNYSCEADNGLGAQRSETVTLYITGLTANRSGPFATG
Protocol: Kinetic characterization experiments were carried out (see Table 8). In these experiments, binding of soluble FcRH5 protein fragment to purified antibodies in human TDB antibody format was analyzed at six different non-zero concentrations (a 1:3 dilution series, one concentration injected twice as a replicate). Flow rate was set at 40 μl/min and association and dissociation monitored for 600 s.

[4] = target: T3, cynomolgus FcRH5 (full-length, on cells) (cynomolgus monkey); experiment: FACS, SVT2 cells
T3 construct: also called SVT2-Cyno-FcRH5; cyno FcRH5
T3 chain: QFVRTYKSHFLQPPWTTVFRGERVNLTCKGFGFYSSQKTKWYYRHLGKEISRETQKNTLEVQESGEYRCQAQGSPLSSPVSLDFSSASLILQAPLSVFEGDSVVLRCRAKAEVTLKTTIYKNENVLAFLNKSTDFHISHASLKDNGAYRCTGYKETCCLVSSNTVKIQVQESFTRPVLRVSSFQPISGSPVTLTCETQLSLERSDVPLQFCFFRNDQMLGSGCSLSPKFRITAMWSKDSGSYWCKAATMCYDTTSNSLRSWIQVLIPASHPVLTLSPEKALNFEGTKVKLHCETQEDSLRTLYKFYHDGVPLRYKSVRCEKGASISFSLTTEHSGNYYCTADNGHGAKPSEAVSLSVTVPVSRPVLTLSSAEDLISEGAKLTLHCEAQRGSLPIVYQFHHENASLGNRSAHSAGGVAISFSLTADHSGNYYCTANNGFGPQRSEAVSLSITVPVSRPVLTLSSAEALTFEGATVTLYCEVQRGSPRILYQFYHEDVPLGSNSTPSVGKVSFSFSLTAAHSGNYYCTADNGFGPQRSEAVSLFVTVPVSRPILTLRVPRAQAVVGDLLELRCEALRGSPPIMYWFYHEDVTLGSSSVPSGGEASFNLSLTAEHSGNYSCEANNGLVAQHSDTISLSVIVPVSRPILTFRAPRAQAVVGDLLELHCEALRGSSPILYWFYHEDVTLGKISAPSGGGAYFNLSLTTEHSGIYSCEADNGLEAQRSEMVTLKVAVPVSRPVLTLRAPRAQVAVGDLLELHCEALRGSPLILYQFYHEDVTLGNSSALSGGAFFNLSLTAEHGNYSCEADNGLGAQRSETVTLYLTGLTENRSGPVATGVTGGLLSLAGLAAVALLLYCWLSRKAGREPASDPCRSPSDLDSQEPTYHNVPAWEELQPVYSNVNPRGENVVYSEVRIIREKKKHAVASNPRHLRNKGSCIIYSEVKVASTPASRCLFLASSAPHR

koff [1]: 0.00833 s⁻¹
kon [1]: 109000 M⁻¹ s⁻¹
B1: hu1G7.v1.4/38E4.v1 TDB (bispecific antibody, V domains shown)
VH 1: EVQLVESGPGLVKPSETLSLTCTVSGFSLTRFGVHWVRQPPGKGLEWLGVIWRGGSTDYNAAFMSRLTISKDNSKNQVSLKLSSVTAADTAVYYCSNHYYGSSDYALDNWGQGTLVTVSS
VL 1: DIQMTQSPSSLSASVGDRVTITCKASQDVRNLVVWFQQKPGKAPKLLIYSGSYRYSGVPSRFSGSGSGTDFTLTISSLQPEDFATYYCQQHYSPPYTFGQGTKVEIK
VH 2: EVQLVQSGAEVKKPGASVKVSCKASGFTFTSYYIHWVRQAPGQGLEWIGWIYPENDNTKYNEKFKDRVTITADTSTSTAYLELSSLRSEDTAVYYCARDGYSRYYFDYWGQGTLVTVSS
VL 2: DIVMTQSPDSLAVSLGERATINCKSSQSLLNSRTRKNYLAWYQQKPGQSPKLLIYWTSTRKSGVPDRFSGSGSGTDFTLTISSLQAEDVAVYYCKQSFILRTFGQGTKVEIK
notes: knob-into-hole TDB; also called 1G7.v1.4 TDB; 1G7.v1.4 (TDB format)

Kd [2]: 92.4 nM
koff [2]: 0.00741 s⁻¹
kon [2]: 80200 M⁻¹ s⁻¹
Kd [3]: 2.35 nM
koff [3]: 0.00104 s⁻¹
kon [3]: 441000 M⁻¹ s⁻¹
B2: 1G7.v85/38E4.v1 TDB (bispecific antibody, V domains shown)
VH 1: EVQLVESGPGLVKPSETLSLTCTVSGFSLTRFGVHWVRQPPGKGLEWLGVIWRGGSTDYNAAFVSRLTISKDNSKNQVSLKLSSVTAADTAVYYCSNHYYGSSDYALDNWGQGTLVTVSS
VL 1: DIQMTQSPSSLSASVGDRVTITCKASQDVRNLVVWFQQKPGKAPKLLIYSGSYRYSGVPSRFSGSGSGTDFTLTISSLQPEDFATYYCQQHYSPPYTFGQGTKVEIK
VH 2: EVQLVQSGAEVKKPGASVKVSCKASGFTFTSYYIHWVRQAPGQGLEWIGWIYPENDNTKYNEKFKDRVTITADTSTSTAYLELSSLRSEDTAVYYCARDGYSRYYFDYWGQGTLVTVSS
VL 2: DIVMTQSPDSLAVSLGERATINCKSSQSLLNSRTRKNYLAWYQQKPGQSPKLLIYWTSTRKSGVPDRFSGSGSGTDFTLTISSLQAEDVAVYYCKQSFILRTFGQGTKVEIK
notes: knob-into-hole TDB; also called 1G7.v85 TDB; 1G7.v85 (TDB format)

binding result [4]: binds
B3: 17B1 (antibody, mouse IgG2a, V domains shown)
VH: QVQLQQSGPELVRPGVSVKISCKGSGYTFTHYAMHWVKQSHTKSLEWIGMISSSSGNTNFNQKFMDKATMTVDKSSTTAYLELARLTFGDSAIYYCARWSYYALFDYWGQGTTVTVSS
VL: ENVLTQSPAIMSASPGEKVTMTCSADSSVDYIHWYQQKSNTSPKLWIYDTSKLASGVPGRFSGSGSGNSYSLTISSMEAEDFATYYCFQGSGYPLTFGSGTKLELK
notes: mouse mAb, Campaign C; recombinant murine IgG2a for SPR
